From patent US20220204580A1 (AstraZeneca / MedImmune, published 2022)
Numbered stars: 1 amine (or outer) side, 2 acyl side, 3 side chain; on linkers, the order of the positions; unused ones are H or OH. Bridge positions count the residues as written; N and C are the ends. Square brackets hold non-standard residues; d marks the D form. Side chains are listed from the residue outwards. Ends that are not written are not given here. * marks the point of attachment. C18 diacid = O=C(O)CCCCCCCCCCCCCCCCC(=O)*; γGlu = O=C(O)[C@H](CCC(=O)[*:2])N[*:1]; Aib = CC(C)(N)C(=O)O

Experiments:
[1] = molecular target: T1, human amylin receptor (calcitonin receptor co-expressed with receptor activity modifying protein, RAMP3) (human, UniProt P30988 25-474; O60896 24-148); experiment: cell-based or functional assay
T1 sequence (looked up) 1: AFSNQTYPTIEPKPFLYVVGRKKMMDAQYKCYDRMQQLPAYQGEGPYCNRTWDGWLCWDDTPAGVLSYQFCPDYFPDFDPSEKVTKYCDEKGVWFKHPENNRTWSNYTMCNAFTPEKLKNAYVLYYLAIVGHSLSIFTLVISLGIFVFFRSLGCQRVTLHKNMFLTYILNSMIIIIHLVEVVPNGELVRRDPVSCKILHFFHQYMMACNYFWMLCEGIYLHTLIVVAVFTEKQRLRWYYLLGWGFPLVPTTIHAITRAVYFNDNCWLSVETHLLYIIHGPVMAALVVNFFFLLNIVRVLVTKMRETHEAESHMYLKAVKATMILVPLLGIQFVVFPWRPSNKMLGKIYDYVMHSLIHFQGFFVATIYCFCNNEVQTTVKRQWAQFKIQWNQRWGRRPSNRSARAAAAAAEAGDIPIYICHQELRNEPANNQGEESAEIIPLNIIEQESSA
T1 sequence (looked up) 2: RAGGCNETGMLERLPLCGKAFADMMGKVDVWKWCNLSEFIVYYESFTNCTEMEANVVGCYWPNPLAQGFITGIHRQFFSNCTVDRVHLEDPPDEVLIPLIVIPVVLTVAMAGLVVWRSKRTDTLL

[2] = molecular target: T2, human calcitonin receptor (human, UniProt P30988 25-474); experiment: cell-based or functional assay
T2 sequence (looked up): T1 sequence (looked up) 1

B1: Peptide 144 (SEQ ID NO: 144) (peptide)
peptide: K([γGlu-C18 diacid])CNTATCATQRLAHFL[Aib]HSSNNFGPILPPTNVGSNTY-NH2
modifications: disulfide 2-7; N-terminus assumed
SMILES: CC[C@H](C)[C@H](NC(=O)[C@@H]1CCCN1C(=O)CNC(=O)[C@H](Cc1ccccc1)NC(=O)[C@H](CC(N)=O)NC(=O)[C@H](CC(N)=O)NC(=O)[C@H](CO)NC(=O)[C@H](CO)NC(=O)[C@H](Cc1c[nH]cn1)NC(=O)C(C)(C)NC(=O)[C@H](CC(C)C)NC(=O)[C@H](Cc1ccccc1)NC(=O)[C@H](Cc1c[nH]cn1)NC(=O)[C@H](C)NC(=O)[C@H](CC(C)C)NC(=O)[C@H](CCCNC(=N)N)NC(=O)[C@H](CCC(N)=O)NC(=O)[C@@H](NC(=O)[C@H](C)NC(=O)[C@@H]1CSSC[C@H](NC(=O)[C@@H](N)CCCCNC(=O)CC[C@H](NC(=O)CCCCCCCCCCCCCCCCC(=O)O)C(=O)O)C(=O)N[C@@H](CC(N)=O)C(=O)N[C@@H]([C@@H](C)O)C(=O)N[C@@H](C)C(=O)N[C@@H]([C@@H](C)O)C(=O)N1)[C@@H](C)O)C(=O)N[C@@H](CC(C)C)C(=O)N1CCC[C@H]1C(=O)N1CCC[C@H]1C(=O)N[C@H](C(=O)N[C@@H](CC(N)=O)C(=O)N[C@H](C(=O)NCC(=O)N[C@@H](CO)C(=O)N[C@@H](CC(N)=O)C(=O)N[C@H](C(=O)N[C@@H](Cc1ccc(O)cc1)C(N)=O)[C@@H](C)O)C(C)C)[C@@H](C)O
For B1, the “EC50 (cAMP production)” value [1] was 0.138 nM, the “Ratio (EC50 hCTR / EC50 hAMYR3)” value [1] was 5.3 and the “EC50 (cAMP production)” value [2] was 0.725 nM.

B2: Peptide 143 (SEQ ID NO: 143) (peptide)
peptide: K([γGlu-C18 diacid])GGKCNTATCATQRLANFL[Aib]HSSNNFGPILPPTNVGSNTY-NH2
modifications: disulfide 5-10; N-terminus assumed
SMILES: CC[C@H](C)[C@H](NC(=O)[C@@H]1CCCN1C(=O)CNC(=O)[C@H](Cc1ccccc1)NC(=O)[C@H](CC(N)=O)NC(=O)[C@H](CC(N)=O)NC(=O)[C@H](CO)NC(=O)[C@H](CO)NC(=O)[C@H](Cc1c[nH]cn1)NC(=O)C(C)(C)NC(=O)[C@H](CC(C)C)NC(=O)[C@H](Cc1ccccc1)NC(=O)[C@H](CC(N)=O)NC(=O)[C@H](C)NC(=O)[C@H](CC(C)C)NC(=O)[C@H](CCCNC(=N)N)NC(=O)[C@H](CCC(N)=O)NC(=O)[C@@H](NC(=O)[C@H](C)NC(=O)[C@@H]1CSSC[C@H](NC(=O)[C@H](CCCCN)NC(=O)CNC(=O)CNC(=O)[C@@H](N)CCCCNC(=O)CC[C@H](NC(=O)CCCCCCCCCCCCCCCCC(=O)O)C(=O)O)C(=O)N[C@@H](CC(N)=O)C(=O)N[C@@H]([C@@H](C)O)C(=O)N[C@@H](C)C(=O)N[C@@H]([C@@H](C)O)C(=O)N1)[C@@H](C)O)C(=O)N[C@@H](CC(C)C)C(=O)N1CCC[C@H]1C(=O)N1CCC[C@H]1C(=O)N[C@H](C(=O)N[C@@H](CC(N)=O)C(=O)N[C@H](C(=O)NCC(=O)N[C@@H](CO)C(=O)N[C@@H](CC(N)=O)C(=O)N[C@H](C(=O)N[C@@H](Cc1ccc(O)cc1)C(N)=O)[C@@H](C)O)C(C)C)[C@@H](C)O
With B2 the “EC50 (cAMP production)” value [1] was 0.592 nM, the “Ratio (EC50 hCTR / EC50 hAMYR3)” value [1] was 11.7 and the “EC50 (cAMP production)” value [2] was 6.94 nM.
